Test results from article PMC6658011.

Target: full-length AMC011 Env trimer (HIV-1)
Assay: negative-stain EM

## PGT145 Fab
  stoichiometry N (Fab per trimer): 1

## PGT151 Fab
  stoichiometry N (Fab per trimer): 2
